Test results: paper PMC7951984
Ends that are not written are not given here.

Target: Plutella xylostella tachykinin receptor (PxTKR) (Plutella xylostella)

EC50 of the cAMP response (cAMP-Glo assay) of HEK293 cells stably expressing PxTKR, peptide from 10 pM to 100 μM [nM] | Molecule
87.7 | Plutella xylostella tachykinin peptide 3 (PxTK3)
32 | APSGFLGMR (ends and bridges not checked) [Plutella xylostella tachykinin peptide 1 (PxTK1)]
